Assays:
[1] = biological target: the molecule itself; assay: AUC; sedimentation velocity at 48 °C, Phb 0.4 mg/mL alone (also with 500 mM betaine), 0.03 M Hepes pH 6.8, ionic strength 0.15 M, 48,000 rpm
[2] = biological target: the molecule itself; assay: AUC + other: dynamic light scattering; sedimentation velocity at 48 °C, αB-Cr 0.2 mg/mL, 0.03 M Hepes pH 6.8, ionic strength 0.15 M, with 300 mM betaine; mass by the Svedberg equation with s from AUC and D from DLS; major peak 16.5 S
[3] = biological target: the molecule itself; assay: AUC + other: dynamic light scattering; sedimentation velocity at 48 °C, αB-Cr 0.2 mg/mL, 0.03 M Hepes pH 6.8, ionic strength 0.15 M, no additive; mass by the Svedberg equation with s from AUC and D from DLS; major peak 20.4 S

B1: glycogen phosphorylase b (enzyme, rabbit, UniProt P00489 1-843, looked up)
chain: MSRPLSDQEKRKQISVRGLAGVENVTELKKNFNRHLHFTLVKDRNVATPRDYYFALAHTVRDHLVGRWIRTQQHYYEKDPKRIYYLSLEFYMGRTLQNTMVNLALENACDEATYQLGLDMEELEEIEEDAGLGNGGLGRLAACFLDSMATLGLAAYGYGIRYEFGIFNQKICGGWQMEEADDWLRYGNPWEKARPEFTLPVHFYGRVEHTSQGAKWVDTQVVLAMPYDTPVPGYRNNVVNTMRLWSAKAPNDFNLKDFNVGGYIQAVLDRNLAENISRVLYPNDNFFEGKELRLKQEYFVVAATLQDIIRRFKSSKFGCRDPVRTNFDAFPDKVAIQLNDTHPSLAIPELMRVLVDLERLDWDKAWEVTVKTCAYTNHTVLPEALERWPVHLLETLLPRHLQIIYEINQRFLNRVAAAFPGDVDRLRRMSLVEEGAVKRINMAHLCIAGSHAVNGVARIHSEILKKTIFKDFYELEPHKFQNKTNGITPRRWLVLCNPGLAEIIAERIGEEYISDLDQLRKLLSYVDDEAFIRDVAKVKQENKLKFAAYLEREYKVHINPNSLFDVQVKRIHEYKRQLLNCLHVITLYNRIKKEPNKFVVPRTVMIGGKAAPGYHMAKMIIKLITAIGDVVNHDPVVGDRLRVIFLENYRVSLAEKVIPAADLSEQISTAGTEASGTGNMKFMLNGALTIGTMDGANVEMAEEAGEENFFIFGMRVEDVDRLDQRGYNAQEYYDRIPELRQIIEQLSSGFFSPKQPDLFKDIVNMLMHHDRFKVFADYEEYVKCQERVSALYKNPREWTRMVIRNIATSGKFSSDRTIAQYAREIWGVEPSRQRLPAPDEKIP
notes: glycogen phosphorylase b (muscle form), rabbit skeletal muscle; In all experiments the protein was heated at 48 °C, so it was partly unfolded (unfolded monomer and partly unfolded dimer); also called Phb; source: purified from rabbit skeletal muscle
**Q.** How did the “stoichiometry N” value [1] turn out when B1 was run?
**A.** 2

B2: αB-crystallin (natural protein, human, UniProt P02511 1-175, looked up)
chain: MDIAIHHPWIRRPFFPFHSPSRLFDQFFGEHLLESDLFPTSTSLSPFYLRPPSFLRAPSWFDTGLSEMRLEKDRFSVNLDVKHFSPEELKVKVLGDVIEVHGKHEERQDEHGFISREFHRKYRIPADVDPLTITSSLSSDGVLTVNGPRKQVSGPERTIPITREEKPAVTAAPKK
notes: αB-crystallin (HspB5), human; Polydisperse oligomer (about 40-mer at 48 °C without additives, about 24-mer with 300 mM betaine); also called HspB5; source: E. coli (pET23 vector), purified (salting out with ammonium sulfate, gel filtration)
**Q.** How did the “stoichiometry N” value [2] turn out when B2 was run?
**A.** ~24

**Q.** And the “stoichiometry N” value [3]?
**A.** 40
